In PMC7588443 (Nature Communications, 2020):
Where a SMILES comes first, the peptide text is derived from it.

How the values were obtained:
BBRF2Δ = biological target: T1, BBRF2Δ (Epstein-Barr virus, UniProt P29882); assay: biochemical; type: binding, human herpesvirus 4 strain M81
T1 construct: The cDNAs for full-length BBRF2 and BBRF2_17–278 were cloned into a modified pET28 vector (pSKB); made in house; host or cells: E. coli Rosetta (DE3)
Method: (§1) The biolayer interferometry (BLI) assay was performed using an eight-channel OctetRED biolayer interferometry system (FortéBio).
(§2) All experiments were carried out at 25 °C. Each measurement involved an 120 s baseline (with reaction buffer), followed by a 180 s (with protein or peptide) association phase, and a 180 s dissociation phase (with reaction buffer). Raw data were processed using Octet Data Analysis software 11.0 provided by Fortebio to derive the dissociation constant (KD). The results were presented in a graph using Origin (version 2019, OriginLab).

BBRF2Δ (BBRF2 17-278) [1] = biological target: T2, BBRF2Δ (BBRF2 17-278) (Epstein-Barr virus (human herpesvirus 4 …, UniProt P29882 17-278)); assay: SEC-RALS; Superdex 75 or Superdex 200 Increase 10/300 GL; 25 μM of each purified protein mixed and incubated overnight at 4 °C; buffer C (20 mM HEPES pH 7.0, 600 mM NaCl, 10% glycerol, 1 mM DTT); conditions: both partners purified
T2 construct: source: E. coli Rosetta (DE3), purified (Ni-NTA, SEC)
T2 sequence: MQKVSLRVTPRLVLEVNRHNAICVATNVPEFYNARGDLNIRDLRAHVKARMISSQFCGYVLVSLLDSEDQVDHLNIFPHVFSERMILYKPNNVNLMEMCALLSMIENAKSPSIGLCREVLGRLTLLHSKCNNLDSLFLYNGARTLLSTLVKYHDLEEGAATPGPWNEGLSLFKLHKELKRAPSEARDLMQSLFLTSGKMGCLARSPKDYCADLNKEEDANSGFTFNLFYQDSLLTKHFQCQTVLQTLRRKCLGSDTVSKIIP

[2] = biological target: the molecule itself; assay: as above
[3] = SEC-RALS, oligomeric state in solution; type: physicochemical; conditions: Superdex 75 or 200, 20 mM HEPES pH 7.0, 600 mM NaCl, 10% glycerol, 1 mM DTT
Method: (§3) The entire experiment was performed in buffer C. The RALS data were analyzed by OMNISEC software.

[4] = 6 μM protein, 3 mM liposomes (Golgi, ER, plasma membrane mixes), 60 min, room temperature; alone or complexed with full-length BBRF2
[5] = biological target: T3, His6-tagged BBRF2Δ (Epstein-Barr virus (human herpesvirus 4 strain M81)), P29882; assay: BLI
T3 chain: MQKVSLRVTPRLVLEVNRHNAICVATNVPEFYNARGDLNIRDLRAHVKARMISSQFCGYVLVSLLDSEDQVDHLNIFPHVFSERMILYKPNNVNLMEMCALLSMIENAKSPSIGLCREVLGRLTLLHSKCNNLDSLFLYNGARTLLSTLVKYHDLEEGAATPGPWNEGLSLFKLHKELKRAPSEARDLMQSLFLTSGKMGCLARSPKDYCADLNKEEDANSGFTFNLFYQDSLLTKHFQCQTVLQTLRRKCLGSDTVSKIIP

BSRF1Δ = assay: SEC analysis, BBRF2Δ mutants with BSRF1Δ; type: binding, human herpesvirus 4 strain M81; conditions: Superdex 75, 25 μM each, overnight at 4 °C, buffer C pH 7.0
Method: as §3

BBRF2Δ(F209K) = assay: Biolayer interferometry (BLI) on BBRF2Δ(F209K); type: binding, human herpesvirus 4 strain M81; conditions: compared to wild-type, pH 7.0, 25 °C
Method: as §1, §2

BBRF2Δ (BBRF2 17-278) [6] = biological target: T2, BBRF2Δ (BBRF2 17-278); assay: SEC; conditions: both partners purified
His6-tagged BBRF2Δ = biological target: T4, His6-tagged BBRF2Δ (Epstein-Barr virus (human herpesvirus 4 …, UniProt P29882 17-278)); assay: BLI; conditions: both partners purified
T4 construct: also called His-tagged BBRF2Δ; source: E. coli Rosetta (DE3), purified; not shown: His6, N-terminal, kept
T4 sequence: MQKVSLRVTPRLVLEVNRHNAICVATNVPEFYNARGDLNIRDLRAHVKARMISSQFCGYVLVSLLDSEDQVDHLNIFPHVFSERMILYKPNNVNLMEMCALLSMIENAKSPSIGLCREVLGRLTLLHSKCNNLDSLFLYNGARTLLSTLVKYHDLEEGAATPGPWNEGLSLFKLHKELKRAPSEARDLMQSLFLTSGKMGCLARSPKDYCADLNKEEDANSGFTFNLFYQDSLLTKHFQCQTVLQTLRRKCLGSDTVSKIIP

[7] = Solubility of recombinant BSRF1 constructs; type: physicochemical; conditions: recombinant protein

CC[C@H](C)[C@H](NC(=O)[C@H](CO)NC(=O)[C@H](CC(N)=O)NC(=O)[C@H](C)NC(=O)[C@H](CCC(N)=O)NC(=O)[C@@H](NC(=O)[C@H](C)NC(=O)[C@H](CC(C)C)NC(=O)[C@H](CC(C)C)NC(=O)[C@H](Cc1ccc(O)cc1)NC(=O)[C@@H](NC(=O)[C@H](CCC(N)=O)NC(=O)[C@H](CCCNC(=N)N)NC(=O)[C@H](CC(C)C)NC(=O)[C@H](CO)NC(=O)CNC(=O)[C@H](CCSC)NC(=O)[C@@H](NC(=O)[C@H](CCC(N)=O)NC(=O)[C@H](CCC(=O)O)NC(=O)[C@H](CC(N)=O)NC(=O)[C@H](CCCNC(=N)N)NC(=O)[C@H](CC(C)C)NC(=O)[C@H](CC(C)C)NC(=O)[C@H](CC(=O)O)NC(=O)CNC(=O)[C@@H](NC(=O)[C@H](CCC(N)=O)NC(=O)[C@@H](NC(=O)CNC(=O)[C@@H]1CCCN1C(=O)[C@@H]1CCCN1C(=O)[C@H](CC(C)C)NC(=O)CNC(=O)[C@H](CC(C)C)NC(=O)[C@@H](N)CC(=O)O)C(C)C)C(C)C)[C@@H](C)O)C(C)C)C(C)C)C(=O)N[C@H](C(=O)N[C@@H](CC(=O)O)C(=O)O)[C@@H](C)O [P1] (H-DLGLPPGVQVGDLLRNEQTMGSLRQVYLLAVQANSITD-OH)
Kd (BBRF2Δ): 7.43 µM

B1: BSRF1_(20-218) (domain or fragment)
chain: RNRYSQLPEEPETFECPDRWRAEIDLGLPPGVQVGDLLRNEQTMGSLRQVYLLAVQANSITDHLKRFDAVRVPESCRGVVEAQVAKLEAVRSVIWNTMISLAVSGIEMDENGLKALLDKQAGDSLALMEMEKVATALKMDETGAWAQEISAVVSSVTAPSASAPFINSAFEPEVPTPVLAPPPVVRQPEHSGPTELALT
notes: also called near-full-length BSRF1; source: E. coli, purified (as the BBRF2 constructs, 300 mM NaCl, no glycerol)
stoichiometry N (BBRF2Δ (BBRF2 17-278) [1]): 1
stoichiometry N [2]: 2
oligomeric state in solution [3]: dimerized in solution
membrane binding [4]: did not exhibit a strong tendency for membrane binding

B2: BSRF1-derived peptide 1 (peptide)
chain: DLGLPPGVQVGDLLRNEQTMGSLRQVYLLAVQANSITD
modifications: not checked
Kd [5]: 7.4 µM

B3: BBRF2Δ: N-terminally truncated version with deletion of residues 1−16 (protein)
chain: MQKVSLRVTPRLVLEVNRHNAICVATNVPEFYNARGDLNIRDLRAHVKARMISSQFCGYVLVSLLDSEDQVDHLNIFPHVFSERMILYKPNNVNLMEMCALLSMIENAKSPSIGLCREVLGRLTLLHSKCNNLDSLFLYNGARTLLSTLVKYHDLEEGAATPGPWNEGLSLFKLHKELKRAPSEARDLMQSLFLTSGKMGCLARSPKDYCADLNKEEDANSGFTFNLFYQDSLLTKHFQCQTVLQTLRRKCLGSDTVSKIIP
oligomeric state in solution [3]: monomeric both in solution and in the asymmetric unit of the crystal

B4: BBRF2Δ(M205K): BBRF2Δ with Met205 mutated to lysine (protein)
chain: MQKVSLRVTPRLVLEVNRHNAICVATNVPEFYNARGDLNIRDLRAHVKARMISSQFCGYVLVSLLDSEDQVDHLNIFPHVFSERMILYKPNNVNLMEMCALLSMIENAKSPSIGLCREVLGRLTLLHSKCNNLDSLFLYNGARTLLSTLVKYHDLEEGAATPGPWNEGLSLFKLHKELKRAPSEARDLKQSLFLTSGKMGCLARSPKDYCADLNKEEDANSGFTFNLFYQDSLLTKHFQCQTVLQTLRRKCLGSDTVSKIIP
complex formation with BSRF1Δ (BSRF1Δ): did not form a complex with BSRF1Δ

B5: BBRF2Δ(F209K): BBRF2Δ with Phe209 mutated to lysine (protein)
chain: MQKVSLRVTPRLVLEVNRHNAICVATNVPEFYNARGDLNIRDLRAHVKARMISSQFCGYVLVSLLDSEDQVDHLNIFPHVFSERMILYKPNNVNLMEMCALLSMIENAKSPSIGLCREVLGRLTLLHSKCNNLDSLFLYNGARTLLSTLVKYHDLEEGAATPGPWNEGLSLFKLHKELKRAPSEARDLMQSLKLTSGKMGCLARSPKDYCADLNKEEDANSGFTFNLFYQDSLLTKHFQCQTVLQTLRRKCLGSDTVSKIIP
binding affinity of BBRF2Δ(F209K) with BSRF1Δ, in words (BBRF2Δ(F209K)): moderately reduced binding affinity
complex formation with BSRF1Δ (BSRF1Δ): maintained the binding for BSRF1Δ

B6: BSRF1Δ with Cys95 mutated to serine (domain or fragment)
chain: ECPDRWRAEIDLGLPPGVQVGDLLRNEQTMGSLRQVYLLAVQANSITDHLKRFDAVRVPESSRGVVEAQVAKLEAVRSVIWNTMISLAVSGIEMDENGLKALLDKQAGDSLALMEMEKVATALKMD
notes: also called BSRF1Δ(C95S); source: E. coli, purified
binding result (BBRF2Δ (BBRF2 17-278) [6]): binds

B7: BSRF1Δ(M63D) (domain or fragment)
chain: ECPDRWRAEIDLGLPPGVQVGDLLRNEQTDGSLRQVYLLAVQANSITDHLKRFDAVRVPESCRGVVEAQVAKLEAVRSVIWNTMISLAVSGIEMDENGLKALLDKQAGDSLALMEMEKVATALKMD
notes: source: E. coli, purified
binding result (His6-tagged BBRF2Δ): binds
binding result (BBRF2Δ (BBRF2 17-278) [6]): binds

B8: BSRF1Δ(N59K) (domain or fragment)
chain: ECPDRWRAEIDLGLPPGVQVGDLLRKEQTMGSLRQVYLLAVQANSITDHLKRFDAVRVPESCRGVVEAQVAKLEAVRSVIWNTMISLAVSGIEMDENGLKALLDKQAGDSLALMEMEKVATALKMD
notes: source: E. coli, purified
binding result (His6-tagged BBRF2Δ): binds
binding result (BBRF2Δ (BBRF2 17-278) [6]): binds

B9: BBRF2: EBV tegument protein, full-length (protein)
chain: MASGKHHQPGGTRSLTMQKVSLRVTPRLVLEVNRHNAICVATNVPEFYNARGDLNIRDLRAHVKARMISSQFCGYVLVSLLDSEDQVDHLNIFPHVFSERMILYKPNNVNLMEMCALLSMIENAKSPSIGLCREVLGRLTLLHSKCNNLDSLFLYNGARTLLSTLVKYHDLEEGAATPGPWNEGLSLFKLHKELKRAPSEARDLMQSLFLTSGKMGCLARSPKDYCADLNKEEDANSGFTFNLFYQDSLLTKHFQCQTVLQTLRRKCLGSDTVSKIIP
oligomeric state in solution [3]: monomer in solution

B10: BSRF1: Full-length BSRF1 (residues 1–218), EBV tegument protein (protein)
chain: MAFYLPDWSCCGLWLFGRPRNRYSQLPEEPETFECPDRWRAEIDLGLPPGVQVGDLLRNEQTMGSLRQVYLLAVQANSITDHLKRFDAVRVPESCRGVVEAQVAKLEAVRSVIWNTMISLAVSGIEMDENGLKALLDKQAGDSLALMEMEKVATALKMDETGAWAQEISAVVSSVTAPSASAPFINSAFEPEVPTPVLAPPPVVRQPEHSGPTELALT
modifications: left off: Flag, end not stated, kept
notes: Full-length BSRF1 (residues 1–218), EBV tegument protein
solubility [7]: insoluble
